Laboratory results reported in article PMC4931344, “The FNIP co-chaperones decelerate the Hsp90 chaperone cycle and enhance drug binding” (Nature Communications, 2016).
Each block holds one molecule with its values, some of them ahead of it.

Legend:
[1] = target: FNIP1-D–His6 labelled with Texas Red Maleimide (UniProt Q8TF40); assay: fluorescence polarisation; fluorescence anisotropy; 1 μM Texas Red-labelled FNIP1-D, Hsp90α titrated; 50 mM Tris pH 7.2, 150 mM NaCl, 1 mM TCEP, 4 mM MgCl2, with or without 1 mM ATP, ADP or AMPPNP; single-site binding equation
[2] = target: T1, FLAG–FNIP1 (bacterially expressed and purified) (UniProt Q8TF40 1-1166); assay: pull-down; His6-tagged protein bound to Ni-NTA agarose, incubated with 10 ng pure FLAG–FNIP1; immunoblot; details: both partners purified
T1 construct: FNIP1; bacterial expression from pRSET-A; also called recombinant FNIP1; source: bacterially expressed and purified (a small amount)
T1 sequence (looked up): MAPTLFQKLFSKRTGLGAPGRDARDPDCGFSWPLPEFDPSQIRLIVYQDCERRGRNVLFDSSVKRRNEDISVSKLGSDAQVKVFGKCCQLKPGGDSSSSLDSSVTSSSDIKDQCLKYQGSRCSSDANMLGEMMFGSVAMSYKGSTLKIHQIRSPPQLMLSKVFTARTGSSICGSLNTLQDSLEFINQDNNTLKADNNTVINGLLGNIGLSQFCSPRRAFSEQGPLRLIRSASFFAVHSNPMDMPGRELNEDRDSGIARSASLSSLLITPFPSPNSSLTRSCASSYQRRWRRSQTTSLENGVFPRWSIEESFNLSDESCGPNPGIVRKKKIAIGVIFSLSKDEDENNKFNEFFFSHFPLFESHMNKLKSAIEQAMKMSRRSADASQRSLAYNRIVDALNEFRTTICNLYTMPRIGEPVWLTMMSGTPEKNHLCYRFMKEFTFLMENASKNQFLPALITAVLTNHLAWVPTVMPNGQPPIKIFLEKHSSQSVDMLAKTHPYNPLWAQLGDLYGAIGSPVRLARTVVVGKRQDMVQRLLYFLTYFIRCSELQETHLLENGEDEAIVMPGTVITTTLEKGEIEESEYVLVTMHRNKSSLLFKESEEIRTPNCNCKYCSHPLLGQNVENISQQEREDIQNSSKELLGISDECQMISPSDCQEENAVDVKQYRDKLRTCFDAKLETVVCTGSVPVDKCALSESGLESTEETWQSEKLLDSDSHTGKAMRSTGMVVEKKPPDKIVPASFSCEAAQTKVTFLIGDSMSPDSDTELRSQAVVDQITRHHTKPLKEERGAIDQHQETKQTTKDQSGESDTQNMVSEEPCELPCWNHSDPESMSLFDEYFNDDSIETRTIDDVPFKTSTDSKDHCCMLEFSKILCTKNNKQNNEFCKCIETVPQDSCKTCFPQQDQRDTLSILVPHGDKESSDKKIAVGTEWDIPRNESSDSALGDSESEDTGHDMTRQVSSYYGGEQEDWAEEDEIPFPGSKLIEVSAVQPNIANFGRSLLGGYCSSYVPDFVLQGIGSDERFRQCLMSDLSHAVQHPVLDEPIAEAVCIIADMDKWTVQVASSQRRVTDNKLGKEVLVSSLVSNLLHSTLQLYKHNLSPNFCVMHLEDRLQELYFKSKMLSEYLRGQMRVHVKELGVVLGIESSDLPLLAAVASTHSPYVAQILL

[3] = target: Hsp90α–FLAG full-length (wild type) (human) (UniProt P07900)

Kd [1]: 1.3 µM
Molecule: Hsp90α–His6 (from UniProt P07900 1-732) (natural protein)

binding result [2]: binds
B1: FLCN–His6 (natural protein, UniProt Q8NFG4 1-579, looked up)
chain: MNAIVALCHFCELHGPRTLFCTEVLHAPLPQGDGNEDSPGQGEQAEEEEGGIQMNSRMRAHSPAEGASVESSSPGPKKSDMCEGCRSLAAGHPGYISHDKETSIKYVSHQHPSHPQLFSIVRQACVRSLSCEVCPGREGPIFFGDEQHGFVFSHTFFIKDSLARGFQRWYSIITIMMDRIYLINSWPFLLGKVRGIIDELQGKALKVFEAEQFGCPQRAQRMNTAFTPFLHQRNGNAARSLTSLTSDDNLWACLHTSFAWLLKACGSRLTEKLLEGAPTEDTLVQMEKLADLEEESESWDNSEAEEEEKAPVLPESTEGRELTQGPAESSSLSGCGSWQPRKLPVFKSLRHMRQVLGAPSFRMLAWHVLMGNQVIWKSRDVDLVQSAFEVLRTMLPVGCVRIIPYSSQYEEAYRCNFLGLSPHVQIPPHVLSSEFAVIVEVHAAARSTLHPVGCEDDQSLSKYEFVVTSGSPVAADRVGPTILNKIEAALTNQNLSVDVVDQCLVCLKEEWMNKVKVLFKFTKVDSRPKEDTQKLLSILGASEEDNVKLLKFWMTGLSKTYKSHLMSTVRSPTASESRN
notes: folliculin (FLCN), bacterially expressed; The name puts His6 behind the protein; source: bacterially expressed and purified; not shown: His6, N-terminal, kept

inhibition of the in vitro ATPase activity of isolated Hsp90α (PiPer Phosphate Assay; Hsp90α 291.5 nM) by 1.6 μM FNIP2 [3]: 8 fold
B2: HA–FNIP2 (natural protein)
chain: MAPTLLQKLFNKRGSSGSSAAASAQGRAPKEGPAFSWSCSEFDLNEIRLIVYQDCDRRGRQVLFDSKAVQKIEEVTAQKTEDVPIKISAKCCQGSSSVSSSSSSSISSHSSSGGSSHHAKEQLPKYQYTRPASDVNMLGEMMFGSVAMSYKGSTLKIHYIRSPPQLMISKVFSARMGSFCGSTNNLQDSFEYINQDPNLGKLNTNQNSLGPCRTGSNLAHSTPVDMPSRGQNEDRDSGIARSASLSSLLITPFPSPSSSTSSSSSYQRRWLRSQTTSLENGIIPRRSTDETFSLAEETCSSNPAMVRRKKIAISIIFSLCEKEEAQRNFQDFFFSHFPLFESHMNRLKSAIEKAMISCRKIAESSLRVQFYVSRLMEALGEFRGTIWNLYSVPRIAEPVWLTMMSGTLEKNQLCQRFLKEFTLLIEQINKNQFFAALLTAVLTYHLAWVPTVMPVDHPPIKAFSEKRTSQSVNMLAKTHPYNPLWAQLGDLYGAIGSPVRLTRTVVVGKQKDLVQRILYVLTYFLRCSELQENQLTWSGNHGEGDQVLNGSKIITALEKGEVEESEYVVITVRNEPALVPPILPPTAAERHNPWPTGFPECPEGTDSRDLGLKPDKEANRRPEQGSEACSAGCLGPASDASWKPQNAFCGDEKNKEAPQDGSSRLPSCEVLGAGMKMDQQAVCELLKVEMPTRLPDRSVAWPCPDRHLREKPSLEKVTFQIGSFASPESDFESRMKKMEERVKACGPSLEASEAADVAQDPQVSRSPFKPGFQENVCCPQNRLSEGDEGESDKGFAEDRGSRNDMAADIAGQLSHAADLGTASHGAGGTGGRRLEATRGLYVKAAEGPVLEPVAPRCVQRGPGLVAGANIPCGDDNKKANFRTEGDIPRNESSDSALGDSDDEACASAMLDLGHGGDRTGGSLEVELPLPRSQSISTQNVRNFGRSLLAGYCPTYMPDLVLHGTGSDEKLKQCLVADLVHTVHHPVLDEPIAEAVCIIADTDKWSVQVATSQRKVTDNMKLGQDVLVSSQVSSLLQSILQLYKLHLPADFCIMHLEDRLQEMYLKSKMLSEYLRGHTRVHVKELGVVLGIESNDLPLLTAIASTHSPYVAQILL

inhibition of the in vitro ATPase activity of isolated Hsp90α (PiPer Phosphate Assay; Hsp90α 291.5 nM) by 200 nM FNIP1 (189.8 nM in the results) [3]: 50 fold
B3: HA–FNIP1 (natural protein)
chain: MAPTLFQKLFSKRTGLGAPGRDARDPDCGFSWPLPEFDPSQIRLIVYQDCERRGRNVLFDSSVKRRNEDISVSKLGSDAQVKVFGKCCQLKPGGDSSSSLDSSVTSSSDIKDQCLKYQGSRCSSDANMLGEMMFGSVAMSYKGSTLKIHQIRSPPQLMLSKVFTARTGSSICGSLNTLQDSLEFINQDNNTLKADNNTVINGLLGNIGLSQFCSPRRAFSEQGPLRLIRSASFFAVHSNPMDMPGRELNEDRDSGIARSASLSSLLITPFPSPNSSLTRSCASSYQRRWRRSQTTSLENGVFPRWSIEESFNLSDESCGPNPGIVRKKKIAIGVIFSLSKDEDENNKFNEFFFSHFPLFESHMNKLKSAIEQAMKMSRRSADASQRSLAYNRIVDALNEFRTTICNLYTMPRIGEPVWLTMMSGTPEKNHLCYRFMKEFTFLMENASKNQFLPALITAVLTNHLAWVPTVMPNGQPPIKIFLEKHSSQSVDMLAKTHPYNPLWAQLGDLYGAIGSPVRLARTVVVGKRQDMVQRLLYFLTYFIRCSELQETHLLENGEDEAIVMPGTVITTTLEKGEIEESEYVLVTMHRNKSSLLFKESEEIRTPNCNCKYCSHPLLGQNVENISQQEREDIQNSSKELLGISDECQMISPSDCQEENAVDVKQYRDKLRTCFDAKLETVVCTGSVPVDKCALSESGLESTEETWQSEKLLDSDSHTGKAMRSTGMVVEKKPPDKIVPASFSCEAAQTKVTFLIGDSMSPDSDTELRSQAVVDQITRHHTKPLKEERGAIDQHQETKQTTKDQSGESDTQNMVSEEPCELPCWNHSDPESMSLFDEYFNDDSIETRTIDDVPFKTSTDSKDHCCMLEFSKILCTKNNKQNNEFCKCIETVPQDSCKTCFPQQDQRDTLSILVPHGDKESSDKKIAVGTEWDIPRNESSDSALGDSESEDTGHDMTRQVSSYYGGEQEDWAEEDEIPFPGSKLIEVSAVQPNIANFGRSLLGGYCSSYVPDFVLQGIGSDERFRQCLMSDLSHAVQHPVLDEPIAEAVCIIADMDKWTVQVASSQRRVTDNKLGKEVLVSSLVSNLLHSTLQLYKHNLSPNFCVMHLEDRLQELYFKSKMLSEYLRGQMRVHVKELGVVLGIESSDLPLLAAVASTHSPYVAQILL
